In patent US20210388087A1 (Chugai, published 2021):
Positions count from the first letter of the chain named. Names may count otherwise.

B1: CE115HA000 Y100aA (antibody)
heavy: QVQLVESGGGVVQPGRSLRLSCAASGFTFSNAWMHWVRQAPGKGLEWVAQIKAKSNNYATYYAESVKGRFTISRDDSKNSLYLQMNSLKTEDTAVYYCRYVHYGAYAGVDAWGQGTTVTVSSASTKGPSVFPLAPSSKSTSGGTAALGCLVKDYFPEPVTVSWNSGALTSGVHTFPAVLQSSGLYSLSSVVTVPSSSLGTQTYICNVNHKPSNTKVDKKVEPKSCDKTHTCPPCPAPEAAGGPSVFLFPPKPKDTLMISRTPEVTCVVVDVSHEDPEVKFNWYVDGVEVHNAKTKPREEQYASTYRVVSVLTVLHQDWLNGKEYKCKVSNKALPAPIEKTISKAKGQPREPQVYTLPPSRCELTKNQVSLSCAVKGFYPSDIAVEWESNGQPENNYKTTPPVLDSDGSFFLVSKLTVDKSRWQQGNVFSCSVMHEALHNHYTQKSLSLSPDYKDDDDK
Fc: EPKSSDKTHTCPPCPAPELLGGPSVFLFPPKPKDTLMISRTPEVTCVVVDVSHEDPEVKFNWYVDGVEVHNAKTKPREEQYNSTYRVVSVLTVLHQDWLNGKEYKCKVSNKALPAPIEKTISKAKGQPREPQVCTLPPSRDELTKNQVSLWCLVKGFYPSDIAVEWESNGQPENNYKTTPPVLDSDGSFFLYSKLTVDKSRWQQGNVFSCSVMHEALHNRYTQKSLSLSP
light: DIVMTQSPLSLPVTPGEPASISCRSSQSLVHSNRNTYLHWYQQKPGQAPRLLIYKVSNRFSGVPDRFSGSGSGTDFTLKISRVEAEDVGVYYCGQGTQVPYTFGQGTKLEIKRTVAAPSVFIFPPSDEQLKSGTASVVCLLNNFYPREAKVQWKVDNALQSGNSQESVTEQDSKDSTYSLSSTLTLSKADYEKHKVYACEVTHQGLSSPVTKSFNRGEC
notes: one-arm antibody
B2: CE115HA000 Y100aD (antibody, human IgG1, kappa, L234A L235A, N297A, name in Kabat numbering)
heavy: B1 heavy with A107D
chain: B1 Fc
light: B1 light
notes: one-arm antibody
B3: CE115HA000 Y100aS (antibody, human IgG1, kappa, L234A L235A, N297A, name in Kabat numbering)
heavy: B1 heavy with A107S
chain: B1 Fc
light: B1 light
notes: one-arm antibody
B4: CE115HA000 Y100aL (antibody, human IgG1, kappa, L234A L235A, N297A, name in Kabat numbering)
heavy: B1 heavy with A107L
chain: B1 Fc
light: B1 light
notes: one-arm antibody
B5: CE115HA000 Y100aK (antibody, human IgG1, kappa, L234A L235A, N297A, name in Kabat numbering)
heavy: B1 heavy with A107K
chain: B1 Fc
light: B1 light
notes: one-arm antibody
B6: CE115HA000 Y100aF (antibody, human IgG1, kappa, L234A L235A, N297A, name in Kabat numbering)
heavy: B1 heavy with A107F
chain: B1 Fc
light: B1 light
notes: one-arm antibody
B7: CE115HA000 Y100aG (antibody, human IgG1, kappa, L234A L235A, N297A, name in Kabat numbering)
heavy: B1 heavy with A107G
chain: B1 Fc
light: B1 light
notes: one-arm antibody
B8: CE115HA000 Y100aQ (antibody, human IgG1, kappa, L234A L235A, N297A, name in Kabat numbering)
heavy: B1 heavy with A107Q
chain: B1 Fc
light: B1 light
notes: one-arm antibody
B9: dBBDu183H P61V / dBBDu072L (antibody, name in Kabat numbering, V domains shown)
VH: QVQLVESGGGLVQPGRSLRLSCAASGFTFSNAWMHWVRQAPGKGLEWVAQIKDKGNAYAAYYAVSVKGRFTISRDDSKNSIYLQMNSLKTEDTAVYYCHYVHYASASTVLPAFGVDAWGQGTTVTVSS
VL: DIVMTQSPLSLPVTPGEPASISCQASQELVHMNRNTYLHWYQQKPGQAPRLLIYKVSNRFPGVPDRFSGSGSGTDFTLKISRVEAEDVGVYYCAQGTSVPFTFGQGTKLEIK
notes: as m1, one VH change
B10: dBBDu183H F100gV / dBBDu072L (antibody, name in Kabat numbering, V domains shown)
VH: B9 VH with V64P, F113V
VL: B9 VL
notes: as m1, one VH change
B11: dBBDu183H A100N / dBBDu072L (antibody, name in Kabat numbering, V domains shown)
VH: B9 VH with V64P, A106N
VL: B9 VL
notes: as m1, one VH change
B12: dBBDu183H G65F / dBBDu072L (antibody, name in Kabat numbering, V domains shown)
VH: B9 VH with V64P, G68F
VL: B9 VL
notes: as m1, one VH change
B13: dBBDu183H A98S / dBBDu072L (antibody, name in Kabat numbering, V domains shown)
VH: B9 VH with V64P, A104S
VL: B9 VL
notes: as m1, one VH change
B14: dBBDu183H D101E / dBBDu072L (antibody, name in Kabat numbering, V domains shown)
VH: B9 VH with V64P, D116E
VL: B9 VL
notes: as m1, one VH change
B15: dBBDu183H A98E / dBBDu072L (antibody, name in Kabat numbering, V domains shown)
VH: B9 VH with V64P, A104E
VL: B9 VL
notes: as m1, one VH change
B16: dBBDu183H A100R / dBBDu072L (antibody, name in Kabat numbering, V domains shown)
VH: B9 VH with V64P, A106R
VL: B9 VL
notes: as m1, one VH change
B17: dBBDu183H A100fG / dBBDu072L (antibody, name in Kabat numbering, V domains shown)
VH: B9 VH with V64P, A112G
VL: B9 VL
notes: as m1, one VH change
B18: dBBDu183H F100gY / dBBDu072L (antibody, name in Kabat numbering, V domains shown)
VH: B9 VH with V64P, F113Y
VL: B9 VL
notes: as m1, one VH change
B19: dBBDu183H A102G / dBBDu072L (antibody, name in Kabat numbering, V domains shown)
VH: B9 VH with V64P, A117G
VL: B9 VL
notes: as m1, one VH change
B20: dBBDu183H G65E / dBBDu072L (antibody, name in Kabat numbering, V domains shown)
VH: B9 VH with V64P, G68E
VL: B9 VL
notes: as m1, one VH change
B21: dBBDu183H F100gH / dBBDu072L (antibody, name in Kabat numbering, V domains shown)
VH: B9 VH with V64P, F113H
VL: B9 VL
notes: as m1, one VH change
B22: dBBDu183H F100gE / dBBDu072L (antibody, name in Kabat numbering, V domains shown)
VH: B9 VH with V64P, F113E
VL: B9 VL
notes: as m1, one VH change
B23: dBBDu183H D101S / dBBDu072L (antibody, name in Kabat numbering, V domains shown)
VH: B9 VH with V64P, D116S
VL: B9 VL
notes: as m1, one VH change
B24: dBBDu183H A102S / dBBDu072L (antibody, name in Kabat numbering, V domains shown)
VH: B9 VH with V64P, A117S
VL: B9 VL
notes: as m1, one VH change
B25: dBBDu183H D101Q / dBBDu072L (antibody, name in Kabat numbering, V domains shown)
VH: B9 VH with V64P, D116Q
VL: B9 VL
notes: as m1, one VH change
B26: dBBDu183H G65D / dBBDu072L (antibody, name in Kabat numbering, V domains shown)
VH: B9 VH with V64P, G68D
VL: B9 VL
notes: as m1, one VH change
B27: dBBDu183H A100fH / dBBDu072L (antibody, name in Kabat numbering, V domains shown)
VH: B9 VH with V64P, A112H
VL: B9 VL
notes: as m1, one VH change
B28: dBBDu183H A100fS / dBBDu072L (antibody, name in Kabat numbering, V domains shown)
VH: B9 VH with V64P, A112S
VL: B9 VL
notes: as m1, one VH change
B29: dBBDu183H A100K / dBBDu072L (antibody, name in Kabat numbering, V domains shown)
VH: B9 VH with V64P, A106K
VL: B9 VL
notes: as m1, one VH change
B30: dBBDu183H F100gT / dBBDu072L (antibody, name in Kabat numbering, V domains shown)
VH: B9 VH with V64P, F113T
VL: B9 VL
notes: as m1, one VH change
B31: dBBDu183H D101N / dBBDu072L (antibody, name in Kabat numbering, V domains shown)
VH: B9 VH with V64P, D116N
VL: B9 VL
notes: as m1, one VH change
B32: dBBDu183H D101T / dBBDu072L (antibody, name in Kabat numbering, V domains shown)
VH: B9 VH with V64P, D116T
VL: B9 VL
notes: as m1, one VH change
B33: dBBDu183H A100Q / dBBDu072L (antibody, name in Kabat numbering, V domains shown)
VH: B9 VH with V64P, A106Q
VL: B9 VL
notes: as m1, one VH change
B34: dBBDu183H F100gS / dBBDu072L (antibody, name in Kabat numbering, V domains shown)
VH: B9 VH with V64P, F113S
VL: B9 VL
notes: as m1, one VH change
B35: dBBDu183H A100E / dBBDu072L (antibody, name in Kabat numbering, V domains shown)
VH: B9 VH with V64P, A106E
VL: B9 VL
notes: as m1, one VH change
B36: dBBDu183H F100gQ / dBBDu072L (antibody, name in Kabat numbering, V domains shown)
VH: B9 VH with V64P, F113Q
VL: B9 VL
notes: as m1, one VH change
B37: dBBDu183H F100gW / dBBDu072L (antibody, name in Kabat numbering, V domains shown)
VH: B9 VH with V64P, F113W
VL: B9 VL
notes: as m1, one VH change
B38: dBBDu183H A100G / dBBDu072L (antibody, name in Kabat numbering, V domains shown)
VH: B9 VH with V64P, A106G
VL: B9 VL
notes: as m1, one VH change

These binders were tested against T1, CD3 epsilon homodimer protein (UniProt P07766 23-126) (assay: SPR, CD3 epsilon homodimer on chip, one-arm antibody as analyte;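 note: surface plasmon resonance at 25 °C with CD3 epsilon homodimer amine-coupled to a CM4 sensor chip, antibody injected as analyte, HBS-EP+ as running buffer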).
T1 construct: also called CD3 (CD3 epsilon)
T1 sequence (P07766 23-126): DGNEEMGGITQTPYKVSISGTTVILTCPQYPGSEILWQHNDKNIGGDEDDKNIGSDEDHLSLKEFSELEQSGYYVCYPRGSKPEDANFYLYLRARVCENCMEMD

KD ratio (KD of CE115HA000/KD of altered form)	Binder
0.66	B1
1.2	B2
0.59	B3
0.57	B4
0.79	B5
0.98	B6
1.01	B7
0.51	B8

The binders below were run against T2, Human CD137 ECD (human) (assay: SPR, vs parent H183/L072).
T2 construct: also called 4-1BB
T2 sequence (chain, as listed by the source limits assumed): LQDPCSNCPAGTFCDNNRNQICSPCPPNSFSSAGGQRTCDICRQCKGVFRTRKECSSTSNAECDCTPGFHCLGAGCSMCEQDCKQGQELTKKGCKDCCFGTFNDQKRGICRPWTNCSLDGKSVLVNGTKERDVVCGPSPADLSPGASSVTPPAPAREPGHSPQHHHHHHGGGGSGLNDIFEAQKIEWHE

fold change of affinity	Binder
0.6 fold	B9
0.5 fold	B10
0.4 fold	B11
1.3 fold	B12
0.3 fold	B13
2.2 fold	B14
0.3 fold	B15
0.5 fold	B16
0.6 fold	B17
1 fold	B18
1.6 fold	B19
1.3 fold	B20
0.7 fold	B21
1.9 fold	B22
3.3 fold	B23
0.9 fold	B24
1.7 fold	B25
1.3 fold	B26
1 fold	B27
0.7 fold	B28
1.1 fold	B29
0.7 fold	B30
0.7 fold	B31
3.3 fold	B32
0.6 fold	B33
0.4 fold	B34
0.5 fold	B35
0.8 fold	B36
0.6 fold	B37
0.7 fold	B38
